# Laboratory results published in the supplement of paper PMC9170038.
# Tested on: K4 kissing-loop RNA reporter
# Assay: apparent KD of K4 kissing-loop reporter; higher = weaker reporter binding
# Conditions: Eterna round: R107
# Description: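 RNA-MaP round R107: designed RNA switches with theophylline, tryptophan, arginine or FMN aptamers are transcribed on-chip within common flanks. They are titrated with a labelled K4 kissing-loop RNA reporter in RNA-MaP buffer (100 mM Tris pH 7.5, 80 mM KCl, 4 mM MgCl2), without ligand or with the indicated ligand. Median apparent KD per design.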
# [1] = input ligand: theophylline 20 uM
# [2] = input ligand: tryptophan 2.4 mM
# 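Also: bound reporter read as fluorescence of individual clusters on recovered sequencing chips by microscopy, with normalized cluster intensities fitted with a binding model.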
Sequence,apparent KD of K4 kissing-loop reporter (input ligand: FMN 200 uM) [nM],apparent KD of K4 kissing-loop reporter (input ligand: arginine 13.2 mM) [nM],apparent KD of K4 kissing-loop reporter (input ligand: none) [nM],apparent KD of K4 kissing-loop reporter [1] [nM],apparent KD of K4 kissing-loop reporter [2] [nM]
AGUACGGCAAACUUGCAACAAGCCGUACCACGAGGACCGGUACGGCCGCCACUCGAUAACUUGCAGUGAUGUUGCAAGUAAGAAU [(T)''-(K)'-(T)'-(T1)-(T2)-(K1)-(K2)_Design5],161,140,169,226,209
AGUAGGAAACUACAAUCCUCUCUUACUGAAGGAGCGCGUGAAAACGCAGGUAGGUCGCAGGAUUUGAGAGUGAUGUUCUCAUUAA [Ex Arginine A K4 16],201,294,231,277,174
AGUAGUUGGACGGCCGCCACUAGAACAGCUUUGCCAAAGGCAGAGCACUAGAGUGAUGUUCUAGCUAGGACCGGGUCCAACUACA [Omei KL Tryp B SS A v1],902,306,54.2,118,1000
AGUAUUGAGUCGGCCGCCACUGGUUUAAUGAGUGUCAAUUCUGGAUCAAAGUGAUGUUUUGGAGCUAGGACCGGGACCAUUGUUA [#07 K4 Tryptophan B Exclusion],446,360,433,360,479
AGUCCACUCUAAAGAGUGGACCUAAGGGAUACCAGUGAUGUUGGUCACCCUUGGCAGCCCACUGUCAUCGAUAAAGAUGGCAGGA,128,112,116,119,117
AGUCCACUCUAAAGAGUGGACCUAAGGGAUACCAGUGAUGUUGGUCACCCUUGGCAGCCCUCUGUCAUCGAUAAAGAUGGCAGGA,128,114,113,137,119
AGUCGAGAUUAUAGACUCGACAGGUCAGAAGGAGCGACGAAUUCGUCAGGUAGGUCGCUGACAUAGCAGUGAUGUUGCUAUACGG [Arg A SS t1],149,132,150,163,126
AGUCGCAGUGAUGUUGCGAUUCCGUUGAGGGAGGAUAUUGGUAAUACAAGAAGGCCCGGCUACGGGAGAUGUUAGCAAUAGGGCC [Exclusion FMN A GF20],92,94.5,63,65,63.9
AGUGAUAUAUGAGGAUAUGGGUUAAUUAGUGAGUGAUUUUUAGUGUUGUUUGAUUAGUGAUGUUAUUUAGAAGGCGUGAGUGAUG [mvvmjmullin],123,106,81.9,144,79.4
AGUGAUAUAUGAGGAUAUGGGUUGGUUAAUGAGUUAGUUUUAGUGUUGUUUGGUUAGUGAUGUUAUUUAGAAGGCGUGAGUGAUG [sffdsmullin],99.6,88.3,81.8,95.8,71.8
AGUGAUGUGGGAAGGAGCGCUAGUACACUUCAGUGAUGUUGAAGUGAUGAAUUAGUGUAUUGGCAGGUAGGUCGCCUAGAUGUUA [KL-XARG-B14],97.4,59.1,82.9,65.4,72.5
AGUGAUGUGGGAAGGAGCGGUAGAUGAGUUCAGUGAUGUUGAAGUGAUGCUGUAGUGAUGUGCCAGGUAGGUCGCCUAGAUGUUA [KL-XARG B24],353,162,258,130,207
AGUGAUGUGGGAAGGAGCGGUAUAAGAAUUCAGUGAUGUUGAAGUGUUGCAGAAAUAAAAGGCCAGGUAGGUCGCCUAGAUGUUA [KL-XARG B29],347,384,454,519,243
AGUGCACUGUCAGGAUAUAUACAGUGAUGUUGUGUAUGUCAGCAAGUCAAAGACUUGCUAUUUUGUGUAGAAGGGACUGUGUACA [whbob_Ex_FMNB__2th221],385,156,176,155,177
AGUGGACGUGUCCGGAGUGAUGUUCCGGAUACCAGACACGAAAGUGUCCCUUGGCAGCCGGAGUAAAGUUCCGGCGUUCACUAAA [#26 K4 Theophylline A Exclusion],109,77.8,111,67.2,105
AGUGGACGUGUCCGGAGUGAUGUUCCGGAUACCAGACACGAAAGUGUCCCUUGGCAGCCGGAGUGAUGUUCCGGCGUUCACUAAA [Omei KL Theo A Exc B v1],270,185,243,220,257

Sequence,apparent KD of K4 kissing-loop reporter (input ligand: FMN 200 uM) [nM],apparent KD of K4 kissing-loop reporter (input ligand: arginine 13.2 mM) [nM],apparent KD of K4 kissing-loop reporter (input ligand: none) [nM],apparent KD of K4 kissing-loop reporter [1] [nM],apparent KD of K4 kissing-loop reporter [2] [nM]
AGUGGUGUAUCUUUUAAGAGUGAUGUUUUUCGAGGACCGGUACGGCCGCCACUCGAGUGAUGAGUGCGUCGUUGUGGUGAUUAGU [#14 K4 Tryptophan A Exclusion],816,530,826,688,262
AGUGUUAGGUUAGAUACCAGCCGUCUAUGGAUAAUCCUCAGACCGCCAGUGAUGUUGGCAGGCCCUUGGCAGCUAACAGAACAGA [Reinonor],202,218,240,164,213
AGUGUUAGGUUAGAUACCAGCCGUCUGUGGAUAAUCCUCAGACCGCCAGUGAUGUUGGCAGGCCCUUGGCAGCUAACAGGACAGA [Mavebius],275,268,272,155,237
AGUUCUUGCCGAAGGAGCGAGGCAGAGUGAUGUUCUGCAAAGGUCGAAAGACCUUAACUGCCUCAGGUAGGUCGCGGCAUGAACA [KL-XARG-B23],622,351,624,602,580
AGUUCUUGCCGAAGGAGCGAGGCAGAGUGAUGUUCUGCAGGAGGUCGAAAGACCUCCCUGCCUCAGGUAGGUCGCGGCAUGAACA [Omei KL Arginine B Exc A v1],587,590,1250,566,478
AUAGACUUGCAGUGAUGUUGCAAGUGAGACUAGGAUAUCAGGAAGCUGAGAAGGAGUCAUCUCCUUCAGACAUCACUAUGAAGGA [whbob_SS_FMNA__2th180],270,180,251,204,221
AUAGGAGUGAUGUUCCUUAGUCUCUCCGAUACCAGUAUGGAAACAUACCCUUGGCAGCGGUAGACCGCAGAUUAGGAAACUAGUC [Theophylline A K4 3],657,726,785,503,610
AUAUAGAGUGAUGUUCAUGAGUAUUUCGAAGGAGCGCUAAAUAAGGCAGGUAGGUCGCGGAAAAUAUAUAUAUAGAUAUAUAUAU [KL-SSArg-A29],168,351,535,665,280
AUAUUAAGCGGAAGGAGCGGCUGAACCAGUGAUGUUGGUUAAUCCAAGUGAUGUUGGAAAAGCCAGGUAGGUCGCCGCUAUAUAU [Same State Arg B GF 1],725,424,695,569,640
AUCGAUAUCAGAGGAUAUGCUUAAUAGAUUUAUUAUUAUCUAUUAUGCAGUGAUGUUGCAUAUUUUGCAGAAGGCUGAUUUCGAA [JR_SSFMNB_Sub019],124,433,447,429,403
AUCGUUGUCUGAGGAUAUCGUUUAACUGUAGUGAUGUUACAGAAAAUUCAUAUUAUAUUUUCUAUUCGAGAAGGCAGACUACGUA [JR_ExcFMNB_Sub016],172,133,135,123,138
AUCUAUGAGCGAGGAUAUGCAUGACGCGAGUGAUGUUCGCGAUGUGGGCGUGAUUAGUAAUAUGAAGCAGAAGGCGCACUCAUGA [Exclusion - FMW B / A],216,111,153,116,129
AUCUGGUUGGGCGAUACCAGUUUGGCAUAGUGAUGUUAUGCAACGCUCAGUGCAAGGCCAAACCCUUGGCAGCGCACAUCCUUUC [theeternabot_exclusion_KL_Theo_B_3],128,99.1,105,117,105
AUCUUGUUUGGAGGAUAUUCUUUAUUUGACAUAACCUUCUAUAAGGUGCAGUGAUGUUGCAAUAUAGGAGAAGGUCGAGUGAGAU [Exclusion FMN B GF 18],190,160,188,202,177
AUGCGCGCGGCGGCCGCCACUCGCAUGAGAGUGAUGUUCUCGCCGGGCCCGGAAGGGCCCGGUGUGAGGACCGGGCCGGGCUGCG [#2 Same State - Tryptophan B Attempt #17 (HarryS)],121,73.2,175,278,344
AUGCGGUGGAGGCUACCGCUAUUCUGAGAAGGAGCGCAGAUGACUGCAGGUAGGUCGCUUAGAGCUUGCAGUGAUGUUGCAAGUU [Islatimaed],200,168,191,174,204
